The source of these data is publication PMC3171469, “Multiple ETS Family Proteins Regulate PF4 Gene Expression by Binding to the Same ETS Binding Site”.

The target of data set [1] is T1, FLI-1 (UniProt Q01543 1-452).
T1 sequence: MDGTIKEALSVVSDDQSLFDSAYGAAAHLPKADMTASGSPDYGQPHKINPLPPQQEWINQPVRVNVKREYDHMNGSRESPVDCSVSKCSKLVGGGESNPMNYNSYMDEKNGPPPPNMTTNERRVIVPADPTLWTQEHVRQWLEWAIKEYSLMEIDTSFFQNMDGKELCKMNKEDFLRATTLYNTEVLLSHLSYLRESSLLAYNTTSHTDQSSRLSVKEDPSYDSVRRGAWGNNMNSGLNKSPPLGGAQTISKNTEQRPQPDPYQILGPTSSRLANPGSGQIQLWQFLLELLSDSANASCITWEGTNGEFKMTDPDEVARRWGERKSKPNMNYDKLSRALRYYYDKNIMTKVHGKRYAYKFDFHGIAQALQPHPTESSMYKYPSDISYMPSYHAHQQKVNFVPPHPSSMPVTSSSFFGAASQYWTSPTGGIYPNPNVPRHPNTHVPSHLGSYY
As to the kind of experiment: EMSA; supershift with anti-FLI-1; 2 mM HEPES-NaOH pH 7.9, 5 mM KCl, 2% glycerol, 0.01 mM EDTA, 0.25 mM DTT, 0.1 mg/ml BSA, 5 ng/ul poly dI-dC, 50 fmol probe, 40 min at 4 C; 4% native gel, 0.5x TBE. Conditions: protein: ivt; label: 32P; blunt. (In general: In EMSA bound probe runs differently from free probe, usually more slowly.)

Data set [2] has as its target T2, ELF-1 (UniProt P32519 1-619). Description: EMSA; anti-ELF-1 inhibits, weak supershift; 2 mM HEPES-NaOH pH 7.9, 5 mM KCl, 2% glycerol, 0.01 mM EDTA, 0.25 mM DTT, 0.1 mg/ml BSA, 5 ng/ul poly dI-dC, 50 fmol probe, 40 min at 4 C; 4% native gel, 0.5x TBE. Conditions: protein: ivt; label: 32P; blunt.
The target of data set [3] is T2, ELF-1. Description: EMSA; 2 mM HEPES-NaOH pH 7.9, 5 mM KCl, 2% glycerol, 0.01 mM EDTA, 0.25 mM DTT, 0.1 mg/ml BSA, 5 ng/ul poly dI-dC, 50 fmol probe, 40 min at 4 C; 4% native gel, 0.5x TBE. Conditions: protein: ivt; label: 32P as probe; blunt.
The target of data set [4] is T1, FLI-1. The data set is described as above. Conditions: protein: ivt; label: 32P as probe; blunt.

T2 sequence (P32519 whole entry): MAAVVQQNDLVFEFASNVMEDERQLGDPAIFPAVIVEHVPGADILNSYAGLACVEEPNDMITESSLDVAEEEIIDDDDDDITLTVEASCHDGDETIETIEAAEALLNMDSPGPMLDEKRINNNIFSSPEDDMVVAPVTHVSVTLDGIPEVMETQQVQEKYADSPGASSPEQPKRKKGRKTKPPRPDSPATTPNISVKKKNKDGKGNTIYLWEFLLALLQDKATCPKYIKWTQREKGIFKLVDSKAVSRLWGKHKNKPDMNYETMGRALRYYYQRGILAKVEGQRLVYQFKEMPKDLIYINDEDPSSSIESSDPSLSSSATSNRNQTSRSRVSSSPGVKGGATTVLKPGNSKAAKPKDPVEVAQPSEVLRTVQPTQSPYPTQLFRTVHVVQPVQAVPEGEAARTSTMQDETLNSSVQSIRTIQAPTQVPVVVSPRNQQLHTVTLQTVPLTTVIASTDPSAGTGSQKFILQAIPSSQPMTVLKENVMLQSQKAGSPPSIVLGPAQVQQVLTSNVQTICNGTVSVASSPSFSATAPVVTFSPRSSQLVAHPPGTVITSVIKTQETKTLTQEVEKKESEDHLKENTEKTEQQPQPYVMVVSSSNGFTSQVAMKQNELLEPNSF

B1: -51 ETS (dsDNA)
DNA 1: CCCGGGTTTCCGGACTGGGCTG
DNA 2: CAGCCCAGTCCGGAAACCCGGG
Turning to B1, the binding result in data set [1] and in data set [2] was “binds” throughout.

B2: -51 ETSmut (dsDNA)
DNA 1: CCCGGGTCGGTGGACTGGGCTG
DNA 2: CAGCCCAGTCCACCGACCCGGG
Regarding B2, the binding result in data set [3] and in data set [4] was “no binding” each time.
